Results reported in the supplement of paper PMC10567573.

B1: WEE1 (parent)
chain: FLGSSFSPVRCGGPGDASPRGCGA

Variants of: B1
Experiment: protein stability index of a GFP-peptide fusion (GPS, HEK-293T) (PSI 1-6); higher = more stable
Conditions: c terminus: a fixed tail appended
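Also: lentivirally expressed fusions sorted by FACS into six bins by GFP to DsRed ratio, PSI derived from sequencing read proportions per bin multiplied by bin number.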

Variant | protein stability index
FLGSSFSPVRCGGPGDASPRDCGA | 1.64
FLGSSFSPVRCGGPGDASPRMCGA | 1.76
FLGSSFSPVRCGGPGDASPRICGA | 1.97
FLGSSFSPVRCGGPGDASPRECGA | 2.06
FLGSSFSPVRCGGPGDASPRNCGA | 1.55
FLGSSFSPVRCGGPGDASPRLCGA | 1.95
FLGSSFSPVRCGGPGDASPRPCGA | 1.91
FLGSSFSPVRCGGPGDASPRKCGA | 1.81
FLGSSFSPVRCGGPGDASPRCCGA | 3.5
FLGSSFSPVRCGGPGDASPRYCGA | 1.69
FLGSSFSPVRCGGPGDASPRACGA | 1.92
FLGSSFSPVRCGGPGDASPRSCGA | 1.67
FLGSSFSPVRCGGPGDASPRQCGA | 2.17
FLGSSFSPVRCGGPGDASPRVCGA | 1.74
FLGSSFSPVRCGGPGDASPRRCGA | 1.96
FLGSSFSPVRCGGPGDASGRGCGA | 2
FLGSSFSPVRCGGPGDASDRGCGA | 2
FLGSSFSPVRCGGPGDASYRGCGA | 1.12
FLGSSFSPVRCGGPGDASARGCGA | 2.78
FLGSSFSPVRCGGPGDASTRGCGA | 1.88
FLGSSFSPVRCGGPGDASKRGCGA | 1.93
FLGSSFSPVRCGGPGDASNRGCGA | 2.45
FLGSSFSPVRCGGPGDASCRGCGA | 1.98
FLGSSFSPVRCGGPGDASRRGCGA | 2.38

Variant | protein stability index
FLGSSFSPVRCGGPGDASSRGCGA | 1.8
FLGSSFSPVRCGGPGDASVRGCGA | 2.23
FLGSSFSPVRCGGPGDASIRGCGA | 1.57
FLGSSFSPVRCGGPGDASFRGCGA | 2.62
FLGSSFSPVRCGGPGDASQRGCGA | 1.57
FLGSSFSPVRCGGPGDASWRGCGA | 2.52
FLGSSFSPVRCGGPGDASHRGCGA | 1.25
FLGSSFSPVRCGGPGDASLRGCGA | 2.31
FLGSSFSPVRCGGPGDASMRGCGA | 1.35
FLGSSFSPVRCGGPGDASERGCGA | 2.14
FLGSSFSPVRCGGPGDAAPRGCGA | 1.71
FLGSSFSPVRCGGPGDAEPRGCGA | 2.15
FLGSSFSPVRCGGPGDAKPRGCGA | 2.07
FLGSSFSPVRCGGPGDACPRGCGA | 1.86
FLGSSFSPVRCGGPGDAWPRGCGA | 2.3
FLGSSFSPVRCGGPGDAIPRGCGA | 1.75
FLGSSFSPVRCGGPGDAMPRGCGA | 1.62
FLGSSFSPVRCGGPGDAPPRGCGA | 2.89
FLGSSFSPVRCGGPGDALPRGCGA | 2
FLGSSFSPVRCGGPGDARPRGCGA | 1.68
FLGSSFSPVRCGGPGDAQPRGCGA | 1.96
FLGSSFSPVRCGGPGDADPRGCGA | 2.16
FLGSSFSPVRCGGPGDANPRGCGA | 1.84
